From the nanobody polyreactivity screen of Harvey et al. (2022)

Experiment: yeast display, Sf9 membrane polyspecificity reagent, FACS + sequencing; frameworks hold sequencing errors
Procedure, shortened: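 Sorting gates, low and high (top ~1%), were placed on anti-HA fluorescence to track expression and on streptavidin fluorescence to track reagent binding. A clone's polyreactivity label is taken from the gate it came out of. The reagent was 10% biotinylated, detergent-solubilized Sf9 membrane, applied for 1 hour at 4 °C to galactose-induced yeast display cells.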

## QVPLVESGGGLVQAGGSLSLTCAASGRNLKYYDMGWYRQAPGKERELVAAISVSGTSTYYADSVKGRFTISRDNAKNTVYLQMNSLKPEDTAVYYCATATGRYSFDYWGQGTQVTLSS
  polyreactivity (PSR sort gate): low polyreactivity

## QVPLVESVGGLVQAGGSLRLSCAASGLTFWRYAMGWYRQAPGKEREFVAAISSGGSTNYADSVKGRFTISRDNAKNTVYLQMNSLKPEDTAVYYCNARYYHKRSTRVIFPYDYWGQGTQVTVSS
  polyreactivity (PSR sort gate): high polyreactivity

## QVPLVESVGGLVQAGGSLRLSCAASGSTFLSNAMGWYRQAPGKERELVASINWIGGSTRYADSVKGRFTISRDNAKNTVYLQMNSLKPEDTAVYYCASRRRWGGHGAFLYYYWGQGTQVTVSS
  polyreactivity (PSR sort gate): high polyreactivity

## QVQHEESGGGLDQAGGSLRLSSASSGTIFYGCYMGWYRQARGKEREMVATISWSSGSSTYYADSVKGRFTISRDNANNSVYLQMNILKPEDTAVYYCAVDFAIGYRYLCRVDYWGQGTQVTVSS
  polyreactivity (PSR sort gate): low polyreactivity

## QVQHEESGGGLVQAGASLRLSCAPSGRILLYNAMGCYRQAPGKERELVAAISSTGGRTYYADSVKGRFTISRDNAKNTFYLQMNSLKPEDTAVYYCAADYYWSLHQRMDYWGQGTQVTVSS
  polyreactivity (PSR sort gate): high polyreactivity

## QVQHEESGGGLVQAGGSLRLSCAASGFTFFSNAMGWFRQAPGKERELVAAITTNGGSTYYADSVKGRFTISRDNAKNTVYLQMYSLKPEDTAGYYCAAEYGITDYDYWGQGTQVTVSS
  polyreactivity (PSR sort gate): low polyreactivity

## QVQHEESGGGLVQAGGSLRLSCAASGLTFYPYAMGWYRQATGKESELVAGISASGGGTSYADSVKGRFTISRDNAKNTVYLQMNSLKPEDTAVYYCAATPTFFVWQGYNYWGQGTQVTVSS
  polyreactivity (PSR sort gate): low polyreactivity

## QVQHEESRRGLVQAGVSLRLRCAASGYTFRVYLMGCYRQAPGKERELVAAITYSGGRTYYADSVKGRFTISRDNAKNTVYLQMNSLKPVDTAVYYCAAERPWYGRDRGFDYWGQGTQVTVSS
  polyreactivity (PSR sort gate): high polyreactivity

## QVQHGESGGGLVQAGGSLRLSCAASGTTLAAYTMGWYRQAPGKERELVAAINSGGGTNYADSVKGRFTISRDNAKNTVYLQMNSLKPEDTAVYYCAKVVFVRGAPGYYWGQGTQVTVSS
  polyreactivity (PSR sort gate): high polyreactivity

## QVQHLESGGGLVQAGGSLRLSCAASAITFDHYAMGWYRQAPGKEREFVAAIDDIGGDTYYPDSVKGRFTSSRDNAKNNVYLQMNSVQPEDTAVYDCNADGEGADSDYEYWGQGNQVTVSS
  polyreactivity (PSR sort gate): low polyreactivity

## QVQHLETGGGLDQAGGSLRLSCAASVRTFGANAMAWYRQAPGNERALVAAITGRGGSTYYADSVKGRFTFSRDNAKNTVYLQMNSLKPEDTAVYYCAKPFKRGYGYDYWGQGTQVTVSS
  polyreactivity (PSR sort gate): low polyreactivity

## QVQHVDSGGGLVQAGGSLLLSCAASGFTFRTYAMGWYRQAPGKEREFVAAITTSGGSTYYADSVKGRFTISRDNAKNTVYLQMNSLKPEDTAVYYCAAKKATVVYRMEYWGQGTLVTVSS
  polyreactivity (PSR sort gate): high polyreactivity

## QVQHVDSGGGLVQAGGSLRLSCAASGSSFGTYDMGWYRQAPGKERELVARISGGGSTYYADSVKGRLTISRDNAKNTVYFQMNRLKPEDTAVYYCNVRKWAYWSHAFIYTYWGQGTQVTVSS
  polyreactivity (PSR sort gate): high polyreactivity

## QVQHVDSGGGLVQAGGSLRLSCSASGINFPWYAMGWYRQAPGKERELVAAITSGGSTYYADSVKGRFTISRDNAKNTVYLEMYSLKPEDTAVYYCNADYYSWYLGAYLYDYWGQGTQVTVSS
  polyreactivity (PSR sort gate): high polyreactivity

## QVQHVDTGGGLVQAGGSLRLSCAASGSIFGRYAMGWSRQAPGKERELVASINWNSGSTYYADSVKGRFTISRDNAKYTVYLQMNSLKPEDTAVYYCAAAALGYYGYRGFDYWGQGTQVTVSS
  polyreactivity (PSR sort gate): low polyreactivity

## QVQHVESAGGLVQAGGSLRLSCAASGGIFWVYAMGWSRQAPGTERELVAAISNSDTSTSYADSVKGRFTISRDNAKNTVYLQMNSLKPEDTAVYYCNAVSPSLSGDYWGQGTQVTVSS
  polyreactivity (PSR sort gate): low polyreactivity

## QVQHVESAGGLVQAGGSLRLSCAASGRIFYVNAMGWYRPAPGKERQLVAAIRSAVGTYYADSVKGRFTISRDNAKNTVYLQMNSLKPEDTAVYYCNADASFREYRFYLIEMDYWGQGTKVTVSS
  polyreactivity (PSR sort gate): high polyreactivity

## QVQHVESAGGLVQAGGSLRLSCAASGSTFSDYAMGRYRQAPGKERELVAAISRSGGSTYYADSVKGRFTISRDNAKNTVYLQMNSLKPEDTAVYYCAASRATLLRYGYWGQGTQVTVSS
  polyreactivity (PSR sort gate): low polyreactivity

## QVQHVESCGGLDQAGGSLRLSCAASGRTFKYYTMGWYRQAPGKQREFVAAISTGGSTHYADSVKGRFTISRDNAKNTVYLQMNSLKPEVTAVSYCAAGCVLWVRDPQGRASYYWGQGTHVTVSS
  polyreactivity (PSR sort gate): high polyreactivity

## QVQHVESGAGLVQAGGSLRLRCAASGIIFYYYAMGWYRQAPGKERELVASISRSGTDTYYADSVKGRFTISRDNAKYTVYLQMNSLIPEDTAVYDCAAKLYSKRTGARMNYWGQGTQVTVSS
  polyreactivity (PSR sort gate): high polyreactivity

## QVQHVESGAGLVQAGGSLRLSCAASGRIFSRYAMGWYRQAPGKERELVAAISERGASTYYADSVKGRFTISRDNAKNTVYLQMNSLKPEDTAVYYCAAKRGSGYGYWGQGTQVTVSS
  polyreactivity (PSR sort gate): high polyreactivity

## QVQHVESGGALVQAGGSHRLSCAASGLTIWRYAKGWYRLATGKERELVAAINYNGVRTYYADSVKGRFTISRDNAKNTVYLQMNSLKQEDTAVYYCAAKPGYYGYWGQGTQVTVSS
  polyreactivity (PSR sort gate): high polyreactivity

## QVQHVESGGCLVQAGGSLRLSCAASGSIFSYYDMGWYRHAPGKERELVAAIRGSGGITYADSVKGRFTISRDNAKNTVYLQMNSLKPEETAVYYCAADQYYRSDYYYWGQGTQVTVSS
  polyreactivity (PSR sort gate): low polyreactivity

## QVQHVESGGCLVQAGGSLRLSCAASGYTFRYYAMGWYRQAPGKERELVAAINWSGCSTYYADSVKGRFTISRDNAKNTVYLHMNSLKPEDTAVYYCAADPDGDVDIDYDYWGQGTQVTVSS
  polyreactivity (PSR sort gate): low polyreactivity

## QVQHVESGGCLVQAGGSLRLSCASSGRTFARYAMGWSRQPPGKDSELVAAITRRGGSTYYADSVKGRFTLSRDNAKNTVSLQMNSLKPEDTAVYYCAAHYRNFGIGAYEYWGKGTQVTVSS
  polyreactivity (PSR sort gate): high polyreactivity

## QVQHVESGGGIVQAGGSLRLSCAASGIIFIGNAMGWYRQAPGKERELVAAITYTGGSTYYADSVKGRFTISRDNAKNTVYLQMNSLKPEDTAVYYCAVDRTHLEDDYWGQGTQVTVSS
  polyreactivity (PSR sort gate): low polyreactivity

## QVQHVESGGGIVQAGGSLRLSCAASGIIFSDYAMGWYRQARGKERELVATITRSVRTSYADSVKGRFTISRDNAKNTVYLQMNSLKPEDTAVYYCYADVVGAVIAYDYWGQGTQVTVSS
  polyreactivity (PSR sort gate): low polyreactivity

## QVQHVESGGGIVQAGGSLRLSCAASGLTITAYVMGWYRQAPGKERELVAAIRNSGGSTYYADSVKGRFTISRDNAKNTVYLQMISLKPEDTAVYYCAKQTSYWSRGYDYWGQGTQVTVSS
  polyreactivity (PSR sort gate): low polyreactivity

## QVQHVESGGGLDQAGGSLRLSCAASGFTFVFNAMGWYRQAPGKERELVATITNGGSTYYADSVKGRFTISRDNAKNTVYLQMNSLKPEDTAVYYCAKTWFAYRDYDFWGQGTQVTVSS
  polyreactivity (PSR sort gate): high polyreactivity

## QVQHVESGGGLDQAGGSLRLSCAASGRIFYANAMGWYRQAPRKERELVAAIDWSGGSTYYADSVKGRFTISRDNAKNTVYLQMNSLKPEDTAVYYCAGPYHYYGNSVGYADYVYWGQGTQVTVSS
  polyreactivity (PSR sort gate): low polyreactivity

## QVQHVESGGGLLQAGGSLRLSCAASVSTLSKNAMGWYRQAPGKERELVAAITRRGGSTSYADSVKGRFTISRDNAKNTVYFQMNSLKPEDTAVYYCNAVSKYDYGYWGQGTQVTVSS
  polyreactivity (PSR sort gate): high polyreactivity

## QVQHVESGGGLLQAGGSLRLTCTASRSIFPYYAMGWYRQATGKERELVAAISSSGARTYYADSVKGRFTISRDNAKNTVYLQMNSLKPEDTGFYYCNSDTIRYRTYGRYAWYNYWGQGTQVTVSS
  polyreactivity (PSR sort gate): high polyreactivity

## QVQHVESGGGLVHAGGSLRLSCAASGSTFRPYPRGWSRQAPGKERELVAAIRKIGGRTYYADSVKGRFTISRDNAKNTVYLQMNSLKPEDTAVYYCNKRIGGGVHAYNYWGQGTQVTVSS
  polyreactivity (PSR sort gate): low polyreactivity

## QVQHVESGGGLVQAGCSLRLSCAASGLIFGLYAMGWFRPAPGKERELVAAISYRTDSTYADSVKGRFTISRDNAKNTVYLQMNSLKPEDNAVYYCAADLRVSVRYYYWGHGTQVTVSS
  polyreactivity (PSR sort gate): low polyreactivity

## QVQHVESGGGLVQAGGRLRLSCAASGIIFQYYAMGSYRQAPGKERESVAGITYPGGSTYYADSVKGRFTISRDNAKNTVYLPKNSLQPEDTAVYFCNAVGVSARYWRQLPSYRYDYWGQGTQVTVSS
  polyreactivity (PSR sort gate): low polyreactivity

## QVQHVESGGGLVQAGGSHRLSCAASGRIFPWNTMGRYRQAPGKERELVAGITSGGSTNYADSVKGRFTISRDNAKNTVYLQMKSLKPEDTAVYYCNRDSVGYDYWGQGTQVTVSS
  polyreactivity (PSR sort gate): low polyreactivity

## QVQHVESGGGLVQAGGSHRLSSAASGSTFRGYVMGWYRQAPGKERELVAVITTSDGDTYYADSVKGRFTNSRDNAKNTVYLQMNSLKPEDTAVYYCNADLYSYYGDNYWGQGTQVTVSS
  polyreactivity (PSR sort gate): low polyreactivity

## QVQHVESGGGLVQAGGSLLLSSAASGRTFLVNAMGWNRQAPGKEREFVAAITSRSGRTNYADSVKGRFTISRDTAKNNVYLQMNSLKPEDTAVYYCNAEGYTVKYWYSRYDYWGQGTQVTVSS
  polyreactivity (PSR sort gate): high polyreactivity

## QVQHVESGGGLVQAGGSLRIRCAASGSIFDLNAMGWYRPAPGKEMELVAASSSGGGTYYADSVKGRFTISRDNAKKTVYLLMISLKPEDTALSDCNRVTRWTYNYWGQGSQVTVSS
  polyreactivity (PSR sort gate): high polyreactivity

## QVQHVESGGGLVQAGGSLRLICAASGSTFGYNAMGWYRHAPGKERELVARITSSGGATYYADSVKWRFTISRDNAKHTVYLLKNSLKPEDTAVYYCAAGYPYRAVYRYYYWGQGTQVTVSS
  polyreactivity (PSR sort gate): high polyreactivity

## QVQHVESGGGLVQAGGSLRLSCAASARIFYWYVMGWSRQAPGKERELVASISRSGGSTYYADSVKGRFTISRDNAKNTVYVQMNSLKPEDTAVYYCNAGSVYTVSLPGHPYDYWGQGTQVTVSS
  polyreactivity (PSR sort gate): low polyreactivity

## QVQHVESGGGLVQAGGSLRLSCAASGFIFDNYAMGWYRQSPGKERELVAAISRSGGSTYYADSVKGRFTISRDNAKTTVYLQMNSLKPEDTAVYYCATSGPRGWSLHDYWGQGTQVTVSS
  polyreactivity (PSR sort gate): high polyreactivity

## QVQHVESGGGLVQAGGSLRLSCAASGFIFPNNAMGWYLQAPGKERELVARISYGGGDTHYADSVKGRFTISRDNAKNTVSLQMNSLKPEDTAVYYCAVKVGQDDYWGQGTQVTVSS
  polyreactivity (PSR sort gate): low polyreactivity
